Test results: publication PMC5014583 (Structure (London, England : 1993), 2016)
“And” between values parts separate entries of the source, which are not always exact repeats. Equal values may be shown once.

Tests used:
[1] = molecular target: T1, Full-length human calmodulin (CaM) (human, UniProt P0DP23 1-149); test: ITC
[2] = molecular target: T1, Full-length human calmodulin (CaM); test: NMR titration

Binder: SPANSFHFKEAWKHAIQKAKHMPDPWA [eEF-2KCBD, calmodulin-binding segment of human eEF-2K (residues 74-100)]
- Kd [1]: 153 nM and 137 nM
- dH [1]: -16.6 kcal/mol
- Kd [2]: 36000 nM
